The supplement of paper PMC9112550, “Optimization of the antimicrobial peptide Bac7 by deep mutational scanning” (BMC Biology, 2022)

system: Escherichia coli TOP10; experiment: shrunken log2 fold change of peptide-encoding DNA abundance (4.5 h post-induction vs induction); higher = less antimicrobial activity (less host growth inhibition); details: time post-induction: 4.5 h; library: site-saturation at positions 5, 18, 19, 20
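Also: peptides expressed intracellularly from a pBAD plasmid library in pooled LB shake-flask culture, induced with 0.3% L-arabinose, DNA abundance read by NGS, three biological replicates, DESeq2 with apeglm shrinkage.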

Sequence | shrunken log2 fold change
RRIRMRPPRLPRPRPRPFNTPRP | -0.0396
RRIRARPPRLPRPRPRPPMDPRP | 0.515
RRIRERPPRLPRPRPRPAFAPRP | 0.206
RRIRPRPPRLPRPRPRPPFVPRP | 0.139
RRIRGRPPRLPRPRPRPFFAPRP | 0.747
RRIRCRPPRLPRPRPRPMLAPRP | 0.379
RRIRHRPPRLPRPRPRPRIFPRP | -0.121
RRIRCRPPRLPRPRPRPTEEPRP | 0.325
RRIRGRPPRLPRPRPRPHMMPRP | -0.0708
RRIRYRPPRLPRPRPRPGAQPRP | -0.0279
RRIRPRPPRLPRPRPRPHPQPRP | 0.238
RRIRVRPPRLPRPRPRPQQTPRP | 0.0227
RRIRSRPPRLPRPRPRPWVLPRP | 2.29
RRIRLRPPRLPRPRPRPMAIPRP | 0.11
RRIRHRPPRLPRPRPRPIFTPRP | -0.191
RRIRGRPPRLPRPRPRPQFSPRP | 0.0687
RRIRIRPPRLPRPRPRPAGAPRP | 0.359
RRIRPRPPRLPRPRPRPNSNPRP | -0.762
RRIRERPPRLPRPRPRPVVTPRP | -0.95
RRIRFRPPRLPRPRPRPERFPRP | -0.104
RRIRIRPPRLPRPRPRPHFSPRP | -0.181
RRIRFRPPRLPRPRPRPNYSPRP | -0.8

Sequence | shrunken log2 fold change
RRIRQRPPRLPRPRPRPMMRPRP | 0.109
RRIRDRPPRLPRPRPRPNEPPRP | -0.0233
RRIRNRPPRLPRPRPRPMAHPRP | -0.0456
RRIRHRPPRLPRPRPRPWICPRP | -0.0191
RRIRRRPPRLPRPRPRPYVEPRP | -0.482
RRIRCRPPRLPRPRPRPHQSPRP | -0.0603
RRIRNRPPRLPRPRPRPKKKPRP | 0.011
RRIRHRPPRLPRPRPRPKVTPRP | -0.62
RRIRRRPPRLPRPRPRPIFHPRP | 0.129
RRIRQRPPRLPRPRPRPDGIPRP | 0.087
RRIRCRPPRLPRPRPRPSCYPRP | -0.295
RRIRRRPPRLPRPRPRPKFRPRP | -0.0588
RRIRFRPPRLPRPRPRPLGTPRP | 0.0158
RRIRHRPPRLPRPRPRPRTWPRP | 0.207
RRIRVRPPRLPRPRPRPTQVPRP | 0.103
RRIRARPPRLPRPRPRPGGGPRP | 0.898
RRIRNRPPRLPRPRPRPCKTPRP | -0.129
RRIRLRPPRLPRPRPRPHNPPRP | -0.883
RRIRIRPPRLPRPRPRPTSAPRP | 0.065
RRIRGRPPRLPRPRPRPVPSPRP | 0.201
RRIRIRPPRLPRPRPRPEKMPRP | -0.165
RRIRSRPPRLPRPRPRPFQCPRP | -0.461

Sequence | shrunken log2 fold change
RRIRKRPPRLPRPRPRPANVPRP | -0.196
RRIRLRPPRLPRPRPRPYQKPRP | 0.00934
RRIRCRPPRLPRPRPRPEGRPRP | 0.0128
RRIRWRPPRLPRPRPRPQIKPRP | -0.21
RRIRYRPPRLPRPRPRPYLCPRP | -1.35
RRIRWRPPRLPRPRPRPAYFPRP | 0.125
RRIRARPPRLPRPRPRPPGRPRP | 0.742
RRIRQRPPRLPRPRPRPTLRPRP | -0.0246
RRIRGRPPRLPRPRPRPRNTPRP | 0.0904
RRIRVRPPRLPRPRPRPRCGPRP | -0.0269
RRIRDRPPRLPRPRPRPSTDPRP | 0.0145
RRIRKRPPRLPRPRPRPHCGPRP | -0.0593
RRIRIRPPRLPRPRPRPAWLPRP | 0.272
RRIRNRPPRLPRPRPRPSETPRP | -0.083
RRIRVRPPRLPRPRPRPWCAPRP | -0.0313
RRIRVRPPRLPRPRPRPYWRPRP | -0.323
RRIRCRPPRLPRPRPRPPHDPRP | 1.83
RRIRPRPPRLPRPRPRPSHNPRP | -0.645
RRIRERPPRLPRPRPRPIKHPRP | -0.967
RRIRVRPPRLPRPRPRPVIEPRP | 0.161
RRIRSRPPRLPRPRPRPNFWPRP | 0.0869
RRIRKRPPRLPRPRPRPPTSPRP | 0.146

Sequence | shrunken log2 fold change
RRIRQRPPRLPRPRPRPFPHPRP | 0.259
RRIRGRPPRLPRPRPRPRQNPRP | 0.768
RRIRLRPPRLPRPRPRPENGPRP | -0.108
RRIRNRPPRLPRPRPRPRPSPRP | 0.443
RRIRRRPPRLPRPRPRPLRKPRP | 0.793
RRIRMRPPRLPRPRPRPMWDPRP | 0.128
RRIRNRPPRLPRPRPRPDDMPRP | -0.107
RRIRCRPPRLPRPRPRPFIQPRP | -1.04
RRIRVRPPRLPRPRPRPVGKPRP | -0.0282
RRIRRRPPRLPRPRPRPHFVPRP | -0.103
RRIRTRPPRLPRPRPRPREPPRP | 1.21
RRIRPRPPRLPRPRPRPYWCPRP | -0.272
RRIRYRPPRLPRPRPRPKDDPRP | -0.153
RRIRFRPPRLPRPRPRPACRPRP | 0.192
RRIRLRPPRLPRPRPRPHANPRP | -0.293
RRIRQRPPRLPRPRPRPFVYPRP | -0.755
RRIRVRPPRLPRPRPRPDYTPRP | -0.495
RRIRLRPPRLPRPRPRPSVVPRP | -0.196
RRIRYRPPRLPRPRPRPEILPRP | -0.288
RRIRWRPPRLPRPRPRPSAFPRP | 0.0981
RRIRQRPPRLPRPRPRPENQPRP | 0.128
RRIRVRPPRLPRPRPRPNRYPRP | -0.4

Sequence | shrunken log2 fold change
RRIRERPPRLPRPRPRPTVDPRP | -0.0352
RRIRRRPPRLPRPRPRPGGMPRP | 0.235
RRIRGRPPRLPRPRPRPVKIPRP | 0.16
RRIRERPPRLPRPRPRPVGWPRP | 0.888
RRIRWRPPRLPRPRPRPCKVPRP | -0.0816
RRIRERPPRLPRPRPRPWEYPRP | 0.0155
RRIRGRPPRLPRPRPRPCWKPRP | 0.175
RRIRDRPPRLPRPRPRPNYIPRP | -1.03
RRIRNRPPRLPRPRPRPALQPRP | 0.234
RRIRKRPPRLPRPRPRPYMCPRP | -0.0998
RRIRRRPPRLPRPRPRPFGWPRP | 0.271
RRIRFRPPRLPRPRPRPTNLPRP | -0.291
RRIRPRPPRLPRPRPRPRFHPRP | -0.108
RRIRIRPPRLPRPRPRPMDAPRP | 0.0153
RRIRPRPPRLPRPRPRPCKWPRP | -0.32
RRIRERPPRLPRPRPRPKMLPRP | -0.0332
RRIRWRPPRLPRPRPRPLEWPRP | 0.0624
RRIRSRPPRLPRPRPRPAWEPRP | 0.499
RRIRQRPPRLPRPRPRPMADPRP | 0.207
RRIRARPPRLPRPRPRPYMQPRP | -0.53
RRIRQRPPRLPRPRPRPKDAPRP | 0.0166
